Laboratory results from publication PMC4381330, “Identification of a novel selective agonist of PPARγ with no promotion of adipogenesis and less inhibition of osteoblastogenesis” (Scientific Reports, 2015).

Key:
[1] = target: GST-fused human PPARγ-LBD (human); experiment: AlphaScreen or HTRF; LanthaScreen TR-FRET coregulator peptide assay; serial concentrations of rosiglitazone with GST-PPARγ-LBD, terbium-labeled anti-GST antibody and fluorescein-labeled peptide, 4 h; 520 nm/495 nm ratio
[2] = target: GST-fused human PPARγ-LBD (human); experiment: AlphaScreen or HTRF; LanthaScreen TR-FRET coregulator peptide assay; serial concentrations of F12016 with GST-PPARγ-LBD, terbium-labeled anti-GST antibody and fluorescein-labeled peptide, 4 h; coactivator data as percent of the maximum of rosiglitazone

efficacy (maximum recruitment, % of rosiglitazone), with rosiglitazone [1] | efficacy (maximum recruitment, % of rosiglitazone), with F12016 [2] | Substance
100% | 17% | transcriptional intermediary factor 2 (TIF2) peptide, fluorescein-labeled
100% | 10% | CREB-binding protein (CBP) peptide, fluorescein-labeled
100% | 26% | steroid receptor coactivator (SRC) 1 peptide, fluorescein-labeled
100% | 23% | steroid receptor coactivator (SRC) 3 peptide, fluorescein-labeled
